What was measured:
His6-ScPrp19(144–503) = target: T1, His6-ScPrp19(144–503) (S. cerevisiae, UniProt P32523 144-503); experiment: pull-down; purified soluble MBP fusions incubated one hour at 4°C with Ni-NTA beads coated with His6-ScPrp19(144–503); washed; SDS-PAGE and Coomassie staining; conditions: both partners purified
T1 construct: Prp19, S. cerevisiae, amino acids 144–503; also called His6-Prp19(144–503); ScPrp19 WD40 domain; source: E. coli BL21 (pET15b), purified (Ni-NTA agarose)
T1 sequence (looked up): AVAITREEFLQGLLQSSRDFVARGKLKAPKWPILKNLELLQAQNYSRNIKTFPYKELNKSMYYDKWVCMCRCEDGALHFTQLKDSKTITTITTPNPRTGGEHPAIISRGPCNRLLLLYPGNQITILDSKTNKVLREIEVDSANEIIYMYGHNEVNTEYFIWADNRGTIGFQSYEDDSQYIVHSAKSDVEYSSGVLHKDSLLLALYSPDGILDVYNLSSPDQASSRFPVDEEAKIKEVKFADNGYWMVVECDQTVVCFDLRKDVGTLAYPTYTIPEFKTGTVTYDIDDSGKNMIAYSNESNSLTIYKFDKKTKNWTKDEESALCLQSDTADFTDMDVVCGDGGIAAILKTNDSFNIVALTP

S. pombe Prp19-Myc13 = target: T2, S. pombe Prp19-Myc13 (S. pombe, UniProt O14011 1-488); experiment: co-IP; anti-HA immunoprecipitate from S. pombe cwf7-HA3 prp19-Myc13 prp17-Myc13 cells; anti-Myc immunoblot quantified on an Odyssey instrument; conditions: partners not purified
T2 construct: Prp19 (Cwf8), S. pombe, open reading frame tagged at the 3' end of the endogenous locus; also called SpPrp19; Cwf8; source: S. pombe, tagged at the endogenous locus, in lysate; not shown: Myc13, C-terminal, kept
T2 sequence (looked up): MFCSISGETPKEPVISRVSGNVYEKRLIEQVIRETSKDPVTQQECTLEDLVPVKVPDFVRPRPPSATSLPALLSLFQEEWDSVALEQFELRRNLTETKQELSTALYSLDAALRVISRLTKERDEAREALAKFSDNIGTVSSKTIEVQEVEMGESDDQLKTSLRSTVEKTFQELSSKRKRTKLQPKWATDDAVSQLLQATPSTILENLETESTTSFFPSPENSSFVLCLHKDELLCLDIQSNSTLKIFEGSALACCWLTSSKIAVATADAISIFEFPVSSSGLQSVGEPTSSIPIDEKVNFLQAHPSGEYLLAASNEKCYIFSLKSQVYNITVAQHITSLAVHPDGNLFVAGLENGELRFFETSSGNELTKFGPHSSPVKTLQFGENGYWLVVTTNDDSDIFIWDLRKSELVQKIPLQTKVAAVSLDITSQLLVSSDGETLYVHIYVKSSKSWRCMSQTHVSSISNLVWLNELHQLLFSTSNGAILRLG

[1] = target: T3, full length S. cerevisiae Prp19 (S. cerevisiae), P32523; experiment: AUC; sedimentation velocity, 30,000 rpm, 22°C, 280 nm; Sedfit c(s) analysis; ScPrp19 constant with His6-ScUrn1 at 1∶1 or 1∶2.5 molar ratio; conditions: remark: other sources report otherwise
T3 chain: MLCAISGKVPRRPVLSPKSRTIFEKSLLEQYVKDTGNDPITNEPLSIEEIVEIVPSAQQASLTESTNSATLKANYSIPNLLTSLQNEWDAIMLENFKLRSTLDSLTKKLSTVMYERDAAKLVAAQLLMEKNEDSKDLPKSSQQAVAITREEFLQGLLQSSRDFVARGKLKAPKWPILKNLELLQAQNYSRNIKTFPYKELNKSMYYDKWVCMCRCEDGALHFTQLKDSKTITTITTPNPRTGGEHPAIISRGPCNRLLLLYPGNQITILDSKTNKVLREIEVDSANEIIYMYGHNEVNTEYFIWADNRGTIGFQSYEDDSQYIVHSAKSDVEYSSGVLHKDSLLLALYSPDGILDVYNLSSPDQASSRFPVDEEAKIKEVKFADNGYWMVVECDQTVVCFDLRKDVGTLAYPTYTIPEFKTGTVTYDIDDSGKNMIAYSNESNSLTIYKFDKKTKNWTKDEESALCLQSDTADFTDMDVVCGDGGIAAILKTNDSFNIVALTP

[2] = target: T4, full length S. cerevisiae Prp19 (S. cerevisiae, UniProt P32523 1-503); experiment: as above; conditions: both partners purified
T4 construct: Prp19, S. cerevisiae, full length (mass 58.6 kDa); no tag is printed for Prp19 in this experiment; also called ScPrp19; source: E. coli BL21 (pETDuet-1), co-expressed with His6-ScUrn1, purified (Ni-NTA agarose, heparin agarose, gel filtration)
T4 sequence (looked up): T3 chain

B1: MBP-ScPrp17(1–140) (domain or fragment, S. cerevisiae, UniProt P40968 1-140, looked up)
chain: MGLVDGYDTSSDSDLNFDEGKSVHEKKNGNLHEDTSYEPSSNNIHKRKSHFTKSELKRRRKTRKGDGPWGSWSSSDDETSQASETQKEDQDIFVHALAEDNLDSEQIEVEEVSHFYGKSEKDYQGRGYLYPPNDVDVDLR
notes: Prp17/Cdc40, S. cerevisiae, residues 1–140; source: E. coli BL21 (pMAL-c2X), purified (amylose beads)
His6-ScPrp19(144–503)
  binding result: binds

B2: S. pombe Prp17-Myc13 (natural protein, UniProt O43071 1-558, looked up)
chain: MLVANYSSDSEEQENSQSPNIQPLLHTENLAPAVVDNVKDDLIVSKGGNSRELARNVPVNEMVQPALGPANPFVTKEQDSIKNSITGYAEREYVPNFVFNQEYYANTHAIYGKRNFDDNEATTSTDLKRKSQKIKERREDPGDPSILEGDGAYKGPWAGYGSEQSSSPLEYSEYEEVESLDVKSEKDTESNNLGQNELLKEQLATPEVETHRSKEETILHKDRLFDYQNRSYMHVPNDVGINLSEEPGEQTCYIPKKHIFTWKGHTKGISCLRFFPISGHLLLSGSMDNQIKIWEVYHDRSLLRTFQGHARPIRDLSFSQDGRSFLSTSFDKTIKLWDTELGKCLNCFNSDRLTNCVKFQVDPDKPNEFLAGTADKRILQFDIRSPDIVQAYDHHLGGINSITFLENGKRFVTTSDDSSMRFWEYGTPVPIKFVADIAMHSMPRVALRPNGKSIACQSLDNCIYVYSAYEKYRQNKKKVFKGYSCSGYSLEVGFSPDGRFVFSGDSSGNACFWDWKTCKLMAKLPAHSGPVQSMAFHPQETSKVATSSIVDGSIKYWD
notes: Prp17, S. pombe, open reading frame tagged at the 3' end of the endogenous locus; also called SpPrp17; source: S. pombe, tagged at the endogenous locus, in lysate; not shown: Myc13, C-terminal, kept
S. pombe Prp19-Myc13
  stoichiometry N: 1.05 ratio of Myc-tagged proteins

B3: full length S. cerevisiae Prp19, P32523 1-503 (natural protein)
chain: T3 chain
[1]
  stoichiometry N: 4

B4: His6-ScUrn1 (natural protein, S. cerevisiae, UniProt Q06525 1-465, looked up)
chain: MRGEWQEFKTPAGKKYYYNKNTKQSRWEKPNLKKGSNLESNAKESQTERKPTFSLELVNGWHLIIYNDGTKLYFNDDSKEFKNDISQEDDSRCRSLIESLDKEKLVLLIGVARGYTMREEDIDKILESCNEEIHLFKRNQDEVERKDEISEEAGDVKSPLQESHTGLVSGYGSSSGEEDEEEDEEEDEENEEQIVNQDISIIDDLNRIDTDDIDERNIFFELFDRYKLDKFSTWSLQSKKIENDPDFYKIRDDTVRESLFEEWCGERSGNATAEESDSEDNSEDDSEVLEPTKYHYLAQIVANAGTIAPDTIPQDIRKQQKALYKAYKIKEYIPSKRDQDKFVSQLLFYYKTFDLEQRKEIFCDCLRDHERDFTGAVESLRQDKELIDRWQTLLKAPADSSSIEDILLSIEHRCCVSPIVVTEPRYYVVGILEKTVVWVRWLAAEVGPSSRFTPVGAGNEPINPE
notes: Urn1, S. cerevisiae (His6-ScUrn1 mass 55.1 kDa); the printed mass fits the whole protein; also called His6-Urn1; source: E. coli BL21 (pETDuet-1), co-expressed with ScPrp19, purified (Ni-NTA agarose, heparin agarose, gel filtration)
[2]
  stoichiometry N: 1 Urn1 per Prp19 tetramer

B5: MBP-ScUrn1(165–274) (domain or fragment, S. cerevisiae, UniProt Q06525 165-274, looked up)
chain: TGLVSGYGSSSGEEDEEEDEEEDEENEEQIVNQDISIIDDLNRIDTDDIDERNIFFELFDRYKLDKFSTWSLQSKKIENDPDFYKIRDDTVRESLFEEWCGERSGNATAE
notes: source: E. coli BL21 (pMAL-c2X), purified (amylose beads)
His6-ScPrp19(144–503)
  binding result: binds
